Results: patent US20140087995A1 (published 2014)
Where a chain is given by its changes, count along the chain named. Numbered stars: 1 amine (or outer) side, 2 acyl side, 3 side chain; on linkers, the order of the positions; unused ones are H or OH. Bridge positions count the residues as written; N and C are the ends. * marks the point of attachment. C20 diacid = O=C(O)CCCCCCCCCCCCCCCCCCC(=O)*; γGlu = O=C(O)[C@H](CCC(=O)[*:2])N[*:1]

B1: N^α1-[(4S)-4-carboxy-4-(19-carboxynonadecanoylamino)butanoyl]-[Arg17,Pro21,Pro27,Glu35]-h-amylin (peptide)
peptide: KCNTATCATQRLANFLRHSSPNFGAIPSSTNVGSETY
modifications: C20 diacid-gGlu on the alpha amino group of the N-terminal residue (Lys 1); disulfide bridge Cys2-Cys7; C-terminal amide
notes: modifications are with respect to human amylin; also called compound 23
B2: N^α1-[(4S)-4-carboxy-4-(19-carboxynonadecanoylamino)butanoyl]-[Arg17,Pro21,Pro27,His34]-h-amylin (peptide)
peptide: B1 peptide with S34H, E35N
modifications: C20 diacid-gGlu on the alpha amino group of the N-terminal residue (Lys 1); disulfide bridge Cys2-Cys7; C-terminal amide
notes: modifications are with respect to human amylin; also called compound 40
B3: N^α1-[(4S)-4-carboxy-4-(19-carboxynonadecanoylamino)butanoyl]-[Arg17,Pro21,Pro27,Pro34,Glu35]-h-amylin (peptide)
peptide: {C20 diacid-γGlu}-KCNTATCATQRLANFLRHSSPNFGAIPSSTNVGPETY-NH2
modifications: disulfide 2-7
SMILES: CC[C@H](C)[C@H](NC(=O)[C@H](C)NC(=O)CNC(=O)[C@H](Cc1ccccc1)NC(=O)[C@H](CC(N)=O)NC(=O)[C@@H]1CCCN1C(=O)[C@H](CO)NC(=O)[C@H](CO)NC(=O)[C@H](Cc1c[nH]cn1)NC(=O)[C@H](CCCNC(=N)N)NC(=O)[C@H](CC(C)C)NC(=O)[C@H](Cc1ccccc1)NC(=O)[C@H](CC(N)=O)NC(=O)[C@H](C)NC(=O)[C@H](CC(C)C)NC(=O)[C@H](CCCNC(=N)N)NC(=O)[C@H](CCC(N)=O)NC(=O)[C@@H](NC(=O)[C@H](C)NC(=O)[C@@H]1CSSC[C@H](NC(=O)[C@H](CCCCN)NC(=O)CC[C@H](NC(=O)CCCCCCCCCCCCCCCCCCC(=O)O)C(=O)O)C(=O)N[C@@H](CC(N)=O)C(=O)N[C@@H]([C@@H](C)O)C(=O)N[C@@H](C)C(=O)N[C@@H]([C@@H](C)O)C(=O)N1)[C@@H](C)O)C(=O)N1CCC[C@H]1C(=O)N[C@@H](CO)C(=O)N[C@@H](CO)C(=O)N[C@H](C(=O)N[C@@H](CC(N)=O)C(=O)N[C@H](C(=O)NCC(=O)N1CCC[C@H]1C(=O)N[C@@H](CCC(=O)O)C(=O)N[C@H](C(=O)N[C@@H](Cc1ccc(O)cc1)C(N)=O)[C@@H](C)O)C(C)C)[C@@H](C)O
notes: modifications are with respect to human amylin; also called compound 29
B4: N^α1-[(4S)-4-carboxy-4-(19-carboxynonadecanoylamino)butanoyl]-[Arg17,Pro21,Pro27,Pro31,Glu35]-h-amylin (peptide)
peptide: {C20 diacid-γGlu}-KCNTATCATQRLANFLRHSSPNFGAIPSSTPVGSETY-NH2
modifications: disulfide 2-7
SMILES: CC[C@H](C)[C@H](NC(=O)[C@H](C)NC(=O)CNC(=O)[C@H](Cc1ccccc1)NC(=O)[C@H](CC(N)=O)NC(=O)[C@@H]1CCCN1C(=O)[C@H](CO)NC(=O)[C@H](CO)NC(=O)[C@H](Cc1c[nH]cn1)NC(=O)[C@H](CCCNC(=N)N)NC(=O)[C@H](CC(C)C)NC(=O)[C@H](Cc1ccccc1)NC(=O)[C@H](CC(N)=O)NC(=O)[C@H](C)NC(=O)[C@H](CC(C)C)NC(=O)[C@H](CCCNC(=N)N)NC(=O)[C@H](CCC(N)=O)NC(=O)[C@@H](NC(=O)[C@H](C)NC(=O)[C@@H]1CSSC[C@H](NC(=O)[C@H](CCCCN)NC(=O)CC[C@H](NC(=O)CCCCCCCCCCCCCCCCCCC(=O)O)C(=O)O)C(=O)N[C@@H](CC(N)=O)C(=O)N[C@@H]([C@@H](C)O)C(=O)N[C@@H](C)C(=O)N[C@@H]([C@@H](C)O)C(=O)N1)[C@@H](C)O)C(=O)N1CCC[C@H]1C(=O)N[C@@H](CO)C(=O)N[C@@H](CO)C(=O)N[C@H](C(=O)N1CCC[C@H]1C(=O)N[C@H](C(=O)NCC(=O)N[C@@H](CO)C(=O)N[C@@H](CCC(=O)O)C(=O)N[C@H](C(=O)N[C@@H](Cc1ccc(O)cc1)C(N)=O)[C@@H](C)O)C(C)C)[C@@H](C)O
notes: modifications are with respect to human amylin; also called compound 28
B5: N^α1-[(4S)-4-carboxy-4-(19-carboxynonadecanoylamino)butanoyl]-[Arg17,Pro21,Pro27,Lys35]-h-amylin (peptide)
peptide: B1 peptide with E35K
modifications: C20 diacid-gGlu on the alpha amino group of the N-terminal residue (Lys 1); disulfide bridge Cys2-Cys7; C-terminal amide
notes: modifications are with respect to human amylin; also called compound 34
B6: N^α1-[(4S)-4-carboxy-4-(19-carboxynonadecanoylamino)butanoyl]-[Glu14,Arg17,Pro21,Pro25,Pro28,Pro29]-h-amylin (peptide)
peptide: {C20 diacid-γGlu}-KCNTATCATQRLAEFLRHSSPNFGPILPPTNVGSNTY-NH2
modifications: disulfide 2-7
SMILES: CC[C@H](C)[C@H](NC(=O)[C@@H]1CCCN1C(=O)CNC(=O)[C@H](Cc1ccccc1)NC(=O)[C@H](CC(N)=O)NC(=O)[C@@H]1CCCN1C(=O)[C@H](CO)NC(=O)[C@H](CO)NC(=O)[C@H](Cc1c[nH]cn1)NC(=O)[C@H](CCCNC(=N)N)NC(=O)[C@H](CC(C)C)NC(=O)[C@H](Cc1ccccc1)NC(=O)[C@H](CCC(=O)O)NC(=O)[C@H](C)NC(=O)[C@H](CC(C)C)NC(=O)[C@H](CCCNC(=N)N)NC(=O)[C@H](CCC(N)=O)NC(=O)[C@@H](NC(=O)[C@H](C)NC(=O)[C@@H]1CSSC[C@H](NC(=O)[C@H](CCCCN)NC(=O)CC[C@H](NC(=O)CCCCCCCCCCCCCCCCCCC(=O)O)C(=O)O)C(=O)N[C@@H](CC(N)=O)C(=O)N[C@@H]([C@@H](C)O)C(=O)N[C@@H](C)C(=O)N[C@@H]([C@@H](C)O)C(=O)N1)[C@@H](C)O)C(=O)N[C@@H](CC(C)C)C(=O)N1CCC[C@H]1C(=O)N1CCC[C@H]1C(=O)N[C@H](C(=O)N[C@@H](CC(N)=O)C(=O)N[C@H](C(=O)NCC(=O)N[C@@H](CO)C(=O)N[C@@H](CC(N)=O)C(=O)N[C@H](C(=O)N[C@@H](Cc1ccc(O)cc1)C(N)=O)[C@@H](C)O)C(C)C)[C@@H](C)O
notes: modifications are with respect to human amylin; also called compound 6

Each binder was assayed against T1, human calcitonin receptor (human, UniProt P30988 25-474) (assay: IC50 at hCTR divided by IC50 at hAmylin-R (reference)).
T1 construct: whole, on cells; Membranes of a BHK tk'ts 13 cell line stably transfected with the human calcitonin receptor; also called hCTR; hCT
T1 sequence (looked up): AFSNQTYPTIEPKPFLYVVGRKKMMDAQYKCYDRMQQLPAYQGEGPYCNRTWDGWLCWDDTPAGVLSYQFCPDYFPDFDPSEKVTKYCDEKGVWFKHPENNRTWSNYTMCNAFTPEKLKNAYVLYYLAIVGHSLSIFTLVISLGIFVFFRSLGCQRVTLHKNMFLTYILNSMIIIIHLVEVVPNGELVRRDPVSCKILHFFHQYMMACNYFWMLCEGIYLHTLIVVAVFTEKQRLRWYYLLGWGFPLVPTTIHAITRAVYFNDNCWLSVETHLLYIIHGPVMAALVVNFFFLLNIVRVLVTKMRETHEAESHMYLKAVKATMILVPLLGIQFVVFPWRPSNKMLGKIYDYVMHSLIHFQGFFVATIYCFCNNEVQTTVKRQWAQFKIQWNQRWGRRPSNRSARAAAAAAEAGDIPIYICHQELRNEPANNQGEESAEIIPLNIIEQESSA
Description: The resulting pellet was resuspended, homogenized and centrifuged (20.000 rpm, 15 min) in a buffer containing 20 mM Na-HEPES and 0.1 mM EDTA (pH 7.4, buffer 2). The resulting pellet was resuspended in buffer 2 and protein concentration was measured (BCA protein Assay, Pierce). The homogenate was kept cold during the whole procedure. The membranes were kept at −80° C. until use. The assay was performed in a 384 well Optiplate (PerkinElmer) in a total volume of 40 ul. Membranes were mixed with SPA beads. Final concentration of membranes 35 ng/μL final and SPA beads was 0.05 mg/well. Test-compounds were dissolved in DMSO and further diluted in assay buffer (50 mM Hepes, pH 7.4, 1 mM CaCl2, 5 mM MgCl₂, 0.1% OA and 0.02% Tween20). […] The final mixture was incubated with shaking at 400 rpm for 120 min at 25° C. prior to centrifugation (1500 rpm, 10 min). Samples were analyzed on TopCounter™ (Packard). The IC₅₀ was calculated using (one site binding competition analysis) GraphPad Prism5 as a measure of receptor affinity.
Membranes were prepared in the following way; the cells were rinsed with PBS and incubated with Versene for approximately 5 min before harvesting. The cells were flushed with PBS and the cell-suspension was centrifuged for 5 min at 1000 rpm. Cells were homogenized (Ultrathurrax) in a buffer containing 20 mM Na-HEPES and 10 mM EDTA (pH 7.4) and centrifuged at 20.000 rpm for 15 min. The resulting pellet was resuspended, homogenized and centrifuged (20.000 rpm, 15 min) in a buffer containing 20 mM Na-HEPES and 0.1 mM EDTA (pH 7.4, buffer 2). The resulting pellet was resuspended in buffer 2 and protein concentration was measured (BCA protein Assay, Pierce). The homogenate was kept cold during the whole procedure. The membranes were kept at −80° C. until use. Assay was performed in a 384 well Optiplate (PerkinElmer) in a total volume of 40 ul. Membranes were mixed with SPA beads.

Ratio hCT/hAmylin binding | Binder
25 | B1
31.1 | B2
13.9 | B3
20.5 | B4
64.4 | B5
20 | B6

Each binder was assayed against T2, rat calcitonin receptor (rat, UniProt P32214 25-516) (assay: IC50 at rCTR divided by IC50 at rAmylin-R (reference)).
T2 construct: whole, on cells; Membranes of BHK tk'ts 13 cells transiently transfected with the rat calcitonin receptor; also called rCTR; rat calcitonin (a) receptor
T2 sequence (looked up): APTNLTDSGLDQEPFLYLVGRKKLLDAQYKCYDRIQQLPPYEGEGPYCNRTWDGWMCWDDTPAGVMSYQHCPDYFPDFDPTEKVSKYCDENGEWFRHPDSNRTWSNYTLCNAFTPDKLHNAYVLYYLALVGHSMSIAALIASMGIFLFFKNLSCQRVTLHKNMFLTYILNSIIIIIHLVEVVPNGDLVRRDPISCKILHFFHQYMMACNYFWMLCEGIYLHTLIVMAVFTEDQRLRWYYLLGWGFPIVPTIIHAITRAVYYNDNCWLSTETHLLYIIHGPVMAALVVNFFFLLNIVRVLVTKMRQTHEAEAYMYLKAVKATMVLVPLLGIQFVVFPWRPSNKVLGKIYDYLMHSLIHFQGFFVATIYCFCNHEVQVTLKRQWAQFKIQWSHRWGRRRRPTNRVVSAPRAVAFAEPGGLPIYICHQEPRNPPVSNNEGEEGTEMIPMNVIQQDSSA

Ratio rCT/rAmylin binding | Binder
71.3 | B1
46.2 | B2
67 | B3
44.9 | B4
52 | B5
21.7 | B6

Each binder was assayed against T3, rat amylin receptor (rat calcitonin receptor + rat RAMP 3) (rat, UniProt P32214 25-516; Q9JJ73 23-147) (assay: SPA competition vs 125I-rat amylin, membranes with rat CTR + rat RAMP3 (Assay VI)).
T3 construct: whole, on cells; Membranes of BHK tk'ts 13 cells transiently transfected with the rat calcitonin receptor and rat RAMP 3; also called rAmylin-R; rat amylin 3(a) receptor
T3 sequence (looked up) 1: T2 sequence (looked up)
T3 sequence (looked up) 2: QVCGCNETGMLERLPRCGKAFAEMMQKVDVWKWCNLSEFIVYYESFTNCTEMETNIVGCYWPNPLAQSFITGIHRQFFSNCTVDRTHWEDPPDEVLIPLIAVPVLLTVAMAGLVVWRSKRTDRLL
Description: The binding assay was performed using scintillation proximity assay (SPA) beads (RPNQ0001) from PerkinElmer and cell membranes from the Amylin 3(a)/CRE-luc cells (as described in Assay (II)) were used. Membranes were prepared in the following way; the cells were rinsed with PBS and incubated with Versene for approximately 5 min before harvesting. The cells were flushed with PBS and the cell-suspension was centrifuged for 5 min at 1000 rpm. Cells were homogenized (ultrathurrax) in a buffer containing 20 mM Na-HEPES and 10 mM EDTA (pH 7.4) and centrifuged at 20.000 rpm for 15 min. The resulting pellet was resuspended, homogenized and centrifuged (20.000 rpm, 15 min) in a buffer containing 20 mM Na-HEPES and 0.1 mM EDTA (pH 7.4, buffer 2). The resulting pellet was resuspended in buffer 2 and protein concentration was measured (BCA protein Assay, Pierce). The homogenate was kept cold during the whole procedure. The membranes were kept at −80° C. until use. The assay was performed in a 384 well Optiplate (PerkinElmer) in a total volume of 40 ul. Membranes were mixed with SPA beads. Final concentration of membranes 35 ng/μL final and SPA beads was 0.05 mg/well. Test-compounds were dissolved in DMSO and further diluted in assay buffer (50 mM Hepes, pH 7.4, 1 mM CaCl2, 5 mM MgCl₂, 0.1% OA and 0.02% Tween20). […] The final mixture was incubated with shaking at 400 rpm for 120 min at 25° C. prior to centrifugation (1500 rpm, 10 min). Samples were analyzed on TopCounter™ (Packard). The IC₅₀ was calculated using (one site binding competition analysis) GraphPad Prism5 as a measure of receptor affinity.
Cells were grown in DMEM with 10% FBS and 1% Pen/Strep. Approximately 48 hours after transfection, the cells were harvested and membranes were prepared.

IC50 [nM] | Binder
1.12 | B1
1.5 | B2
0.322 | B3
1.22 | B4
1.72 | B5
2.37 | B6

Each binder was assayed against T2, rat calcitonin receptor (assay: SPA competition vs 125I-calcitonin, membranes with rat CTR (Assay VIII)).

IC50 [nM] | Binder
79.9 | B1
69.2 | B2
21.6 | B3
54.9 | B4
89.2 | B5
51.5 | B6
